Data: patent US20230365667A1 (Merck Sharp & Dohme, published 2023)

target: T1, Abeta peptide (40-amino acid Abeta peptide, SEQ ID NO: 1), biotinylated (human, N-terminal biotin or C-terminal lysine-linked biotin, separated from the peptide by a PEG6 linker); test: BLI (Octet HTX), biotinylated Abeta on streptavidin sensors, 1 uM VHH, 1:1 fit
T1 construct: Synthesized by Genscript; also called amyloid beta; test peptide
Experimental: Binding affinity was measured using Biolayer Interferometry (BLI) with a ForteBio Octet HTX instrument. Biotinylated antigen was loaded onto streptavidin biosensors at a concentration of 100 nM in kinetics buffer (PBS+1% BSA). The binding experiments were performed with the following steps: 1) baseline in kinetics buffer for 30 seconds, 2) loading of antigen for 180 seconds, to achieve a loading response of at least 1 nm, 3) baseline for 60 seconds, 4) association of 1 μM VHH for 300 seconds, and 5) dissociation into kinetics buffer for 180 seconds. Curves were fit to a 1:1 binding model using the ForteBio software. A negative control was included in all plates, which was un-transfected mammalian cells subjected to the same purification process, to account for the effect of any carryover protein contaminants from cell culture.

T1 sequence (peptide, as listed by the source): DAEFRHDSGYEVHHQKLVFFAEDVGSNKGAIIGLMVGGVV

Row | Binder | Kd [nM] | koff [s⁻¹] | kon [M⁻¹ s⁻¹]
1 | vhhLib05-21 (VHH, The entry as printed includes a doubled TLVTVSS and HHHHHH; also called 16BHK) VHH: EVQLLESGGGLVQPGGSLRLSCAASGFTFSNYAMSWVRQAPGKQREWVSVISGNGSSTYYADSVKGRFTISRDNSKNTLYLQMNSLRAEDTAVYYCARLVQLPWVPISAFDVWGQGTLVTVSS | 104 | 0.00111 | 10700
2 | vhhLib02-91 (VHH, The entry as printed includes HHHHHH; also called 09BHK) VHH: EVQLVESGGGLVQPGGSLRLSCAASGFTVSDYHMSWYRQAPGKQRELVSVILSGGRTYYADSVKGRFTISRDNSKNTLYLQMNSLRAEDTAVYYCARADAIFPWFDVWGQGTLVTVSS | 43.1 | 0.00046 | 10700
3 | vhhLib01-34 (VHH, The entry as printed includes HHHHHH) VHH: QVQLVESGGGLVQPGGSLRLSCAASGSIFSVNRMGWYRQAPGKQRELVAAIISGGATNYADSVKGRFTISRDNAKNTVYLQMNSLKPEDTAVYYCARRPAPNGRYHSWYAFDYWGQGTLVTVSS | 367 | 0.00268 | 7320
4 | vhhLib05-49 (VHH, also called 20BHK) VHH: EVQLLESGGGLVQPGGSLRLSCAASGFTFSSYAMSWVRQAPGKQREWVSAISGSGGSTYYADSVKGRFTISRDNSKNTLYLQMNSLRAEDTAVYYCARDTNQPYHGRYVYTYDFDVWGQGTLVTVSS | 5.3 | 6.73e-05 | 12600
5 | vhhLib02-64 (VHH, The entry as printed includes HHHHHH) VHH: EVQLVESGGGLVQPGGSLRLSCAASGFTFSGYFMSWYRQAPGKQRELVSVINSGGSTYYADSVKGRFTISRDNSKNTLYLQMNSLRAEDTAVYYCARGRVATGGGYGFVHYFDVWGQGTLVTVSS | 210 | 0.0029 | 13800
6 | vhhLib02-37 (VHH, The entry as printed includes HHHHHH; also called vhbLib02-37) VHH: EVQLVESGGGLVQPGGSLRLSCAASGFTFSDYVMSWYRQAPGKQRELVSAIISGEDTYYADSVKGRFTISRDNSKNTLYLQMNSLRAEDTAVYYCARYVHKSTWYYFDHWGQGTLVTVSS | 328 | 0.00105 | 3210
7 | vhhLib01-75 (VHH, The entry as printed includes HHHHHH) VHH: QVQLVESGGGLVQPGGSLRLSCAASGSIFSSNRMGWYRQAPGKQRELVAAIFSGGHTNYADSVKGRFTISRDNAKNTVYLQMNSLKPEDTAVYYCARPVDWSGPFDIWGQGTLVTVSS | 185 | 0.00324 | 17500
8 | vhhLib05-83 (VHH, The entry as printed includes a doubled TLVTVSS-like stretch and HHHHHH) VHH: EVQLLESGGGLVQPGGSLRLSCAASGFTFSNYAMSWVRQAPGKQREWVSAISGSGGSTYYADSVKGRFTISRDNSKNTLYLQMNSLRAEDTAVYYCARLFLQQADGLYYYYAFDPWGQGTPVTVSS | 292 | 0.00112 | 3830
9 | vhhLib05-33 (VHH, The entry as printed includes a doubled TLVTVSS and HHHHHH; also called vhbLib05-33) VHH: EVQLLESGGGLVQPGGSLRLSCAASGFTFSSYAMSWVRQAPGKQREWVSAISGSGGSTYYADSVKGRFTISRDNSKNTLYLQMNSLRAEDTAVYYCARLQGVQSDEVYYNYFDVWGQGTLVTVSS | 633 | 0.00297 | 4680
10 | vhhLib05-28 (VHH, The entry as printed includes a doubled TLVTVSS and HHHHHH) VHH: EVQLLESGGGLVQPGGSLRLSCAAAGFTFSSYAMSWVRQAPGKQREWVSAISGSGGSTYYADSVKGRFTISRDNSKNTLYLQMNSLRAEDTAVYYCARLSHNSQGTVVYNYFDIWGQGTLVTVSS | 114 | 0.000725 | 6370
11 | vhhLib05-78 (VHH, The entry as printed includes a doubled TLVTVSS and HHHHHH) VHH: EVQLLESGGGLVQPGGSLRLSCAASGFTFSSYAMTWVRQAPGKQREWVSAISGSGGSTYYADSVKGRFTISRDNSKNTLYLQMNSLRAEDTAVYYCARLATHVDNGLGYNYFDVWGQGTLVTVSS | 214 | 0.00133 | 6200
12 | vhhLib01-48 (VHH, The entry as printed includes HHHHHH) VHH: QVQLVESGGGLVQPGGSLRLSCAASGSIFSANIMGWYRQAPGKQRELVAAIVSGGYTNYADSVKGRFTISRDNAKNTVYLQMNSLKPEDTAVYYCARDQDAFDHVGQYFDHWGQGTLVTVSS | 153 | 0.00333 | 21800
13 | vhhLib05-25 (VHH, The entry as printed includes a doubled TLVTVSS and HHHHHH) VHH: EVQLLESGGGLVQPGGSLRLSCAASGFTFSSYAMSWVRQAPGKQREWVSAISGSGGSTYYADSVKGRFTISRDNSKNTLYLQMNSLRAEDTAVYYCARHRQADGITYFDIWGQGTLVTVSS | 23.9 | 0.000337 | 14100
14 | vhhLib05-5 (VHH, The entry as printed includes a doubled TLVTVSS and HHHHHH) VHH: EVQLLESGGGLVQPGGSLRLSCAASGFTFSSYAMSWVRQAPGKQREWVSAISGSGGSTYYADSVKGRFTISRDNSKNTLYLQMNSLRAEDTAVYYCARLDYTDGINYFDYWGQGTLVTVSS | 189 | 0.000882 | 4660
15 | vhhLib05-14 (VHH, The entry as printed includes a doubled TLVTVSS and HHHHHH) VHH: EVQLLESGGGLVQPGGSLRLSCAASGFTFSSYAMSWVRQAPGKQREWVSAISGSGGSTYYADSVKGRFTISRDNSKNTLYLQMNSLRAEDTAVYYCARLSIVDVVTVFDVWGQGTLVTVSS | 39.9 | 0.000443 | 11100
16 | vhhLib01-58 (VHH, The entry as printed includes HHHHHH) VHH: QVQLVESGGGLVQPGGSLRLSCAASGSIFSPNHMGWYRQAPGKQRELVAAIYSGGTTNYADSVKGRFTISRDNAKNTVYLQMNSLKPEDTAVYYCARRTFLRGWSGYLPWFDVWGQGTLVTVSS | 264 | 0.0045 | 17000
17 | vhhLib02-26 (VHH, The entry as printed includes HHHHHH) VHH: EVQLVESGGGLVQPGGSLRLSCAASGFTFSAYIMSWYRQAPGKQRELVGAIVSGGLTYYADSVKGRFTISRDNSKNTLYLQMNSLRAEDTAVYYCARHWRWYDSNLVFDLWGQGTLVTVSS | 249 | 0.0137 | 55000
18 | vhhLib02-93 (VHH, The entry as printed includes HHHHHH) VHH: EVQLVESGGGLVQPGGSLRLSCAASGFTFSDYHMSWYRQAPGKQREPVSVINSGGYTYYADSVKGRFTISRDNSKNTLYLQMNSLRAEDTAVYYCARAQAAHYLYGYFDIWGQGTLVTVSS | 469 | 0.00314 | 6700
19 | vhhLib01-49 (VHH, The entry as printed includes HHHHHH) VHH: QVQLVESGGGLVQPGGSLRLSCAASGSIFSHNTMGWYRQAPGKQRELVAAINSGGSTNYADSVKGRFTISRDNAKNTVYLQMNSLKPEDTAVYYCARYIQTYTWGYFDYWGQGTLVTVSS | 116 | 0.000734 | 6320
20 | vhhLib01-3 (VHH, The entry as printed includes HHHHHH) VHH: QVQLVESGGGLVQPGGSLRLSCAASGSIFSFNLMGWYRQAPGKQRELVAAINSGGSTNYADSVKGRFTISRDNAKNTVYLQMNSLKPEDTAVYYCARDYTVYVSYYDGRFDYWGQGTLVTVSS | 239 | 0.00353 | 14800
21 | vhhLib02-21 (VHH, The entry as printed includes HHHHHH) VHH: EVQLVESGGGLVQPGGSLRLSCAASGFTFSLYTMSWYRQAPGKQRELVSAISSGGSTYYADSVKGRFTISRDNSKNTLYLQMNSLRAEDTAVYYCARYDYSWWYFDLWGQGTLVTVSS | 244 | 0.000724 | 2970
22 | vhhLib02-53 (VHH, The entry as printed includes HHHHHH; also called 06BHK) VHH: EVQLVESGGGLVQPGGSLRLSCAASGFTFSRYLMSWYRQAPGKQRELVGAIASGGVTYYADSVKGRFTISRDNSKNTLYLQMNSLRAEDTAVYYCARGNPSERLYYYFDYWGQGTLVTVSS | 42.6 | 0.000447 | 10500
23 | vhhLib01-86 (VHH, The entry as printed includes a doubled TLVTVSS and HHHHHH; also called vhbLib01-86) VHH: QVQLVESGGGLVQPGGSLRLSCAASGSIFSANHMGWYRQAPGKQRELVAAILSGGVTNYADSVKGRFTISRDNAKNTVYLQMNSLKPEDTAVYYCARGQVDTKYGYYYFDSWGQGTLVTVSS | 430 | 0.0033 | 7670
24 | vhhLib01-2 (VHH, The entry as printed includes HHHHHH) VHH: QVQLVESGGGLVQPGGSLRLSCAASGSIFSANHMGWYRQAPGKQRELVAAISSGGLTNYADSVKGRFTISRDNAKNTVYLQMNSLKPEDTAVYYCARHQTKIYNLHYYYFDYWGQGTLVTVSS | 212 | 0.00632 | 29800
25 | vhhLib05-8 (VHH, The entry as printed includes a doubled TLVTVSS and HHHHHH; also called 13BHK) VHH: EVQLLESGGGLVQPGGSLRLSCAASGFTFSSYAMSWVRQAPGKQREWVSAISGSGGRTYYADSVKGRFTISRDNSKNTLYLQMNSLRAEDTAVYYCARHSIPVDGIVAFDHWGQGTLVTVSS | 25.4 | 0.000269 | 10600
26 | vhhLib05-10 (VHH, The entry as printed includes a doubled TLVTVSS and HHHHHH) VHH: EVQLLESGGGLVQPGGSLRLSCAASGFTFSSYAMSWVRQAPGKQREWVSAISGSGGSTYYADSVKGRFTISRDNSKNTLYLQMNSLRAEDTAVYYCARVVKVDDIVHAFDIWGQGTLVTVSS | 176 | 0.00127 | 7170
